Biological target: T7 RNAP PACE variant L2-108.2 (mutations only in figure) (bacteriophage T7) (UniProt P00573)
Experiment: cell_activity
Settings: lacZ reporter; relative to starting RNAP on T7 promoter

Sequence	activity
AATTAACCCTCACTAAA (double strand) [T3 promoter]	270%
TAATACGACTCACTATA (double strand) [T7 promoter]	100%

Source: patent publication US20220195418
